The text below walks through data of patent US20010039258A1, “Active agent transport systems” (Emisphere Technologies, Inc., priority 1990, published 2001).

The term Tm denotes the temperature at which the thermal transition is half complete.

Data set [1] is described as follows: Solubility of perturbant under the DSC buffer conditions. Type of data set: physicochemical. Particulars: room temperature; buffer conditions of the DSC (20 mM NaPhosphate pH 7.2). The method, then: (§1) Perturbant binding DSC was conducted using 20 mM NaPhosphate buffer at pH 7.2. Dry perturbant was weighed out to make perturbant stock solutions. α-interferon stock was diluted in the buffer. α-interferon solution was not dialyzed prior to experiments for the purpose of having the same active concentration for the whole set.
DSC experiments were carried out according to the procedure of Example 19, with 0.5 mg/ml α-interferon mixed with (1) benzoyl para-amino phenylbutyric acid, (2) the perturbant of Example 22, or (3) the perturbant of Example 19.
Benzoyl para-amino phenylbutyric acid was poorly soluble under the buffer conditions. Maximum concentration at which the solution was still transparent at room temperature was ˜8 mg/mL. Therefore, the concentrations of the perturbant used were 2, 4, and 6 mg/mL. Results are illustrate in FIGS. 17 and 18. The dashed line in FIG. 17 represents the linear least squares, and the regression equation is at the top of FIG. 17.

The target of data set [2] is T1, α-interferon (Homo sapiens, UniProt P01563).
T1 construct: purchased Schering Plough Corp
In words: Isothermal titration calorimetry of perturbant complexing with α-interferon. Conditions: pH 7; read-out: apparent dissociation constant. Type of data set: binding. On the technique in general: In ITC the heat of successive injections is recorded.

Data set [3] deals with T1, α-interferon. The data set is described as above. It counts as binding. Conditions: pH 7.2, 25° C. The method, then: Isothermal titration calorimetry of perturbant complexing with α-interferon was performed at 25° C. at two different pH's. The buffers used were 20 mM NaPhosphate for pH 7.2 and 20 mM NaAc for pH 3.0. α-interferon solution was dialyzed before the experiment to reach the appropriate pH. Dry perturbants were weighed and diluted in dialysate.
ITC was conducted on a MicroCal OMEGA titration calorimeter (MicroCal Inc.—Northampton, Mass.). Data points were collected every 2 seconds, without subsequent filtering. α-interferon solution placed in 1.3625 mL cell was titrated using a 250 μL syringe filled with concentrated perturbant solution. A certain amount of titrant was injected every 3-5 minutes for up to 55 injections.
A reference experiment to correct for the heat of mixing of two solutions, was performed identically except that the reaction cell was filled with buffer without active agent.
Analysis of the data was performed using the software developed at the Johns Hopkins University Biocalorimetry Center.
The titration at pH 7.2 included 53 injections of 2 μL of the perturbant of Example 30 (50 mg/mL=191.6 mM (MW 261)) and α-interferon (1.3 mg/mL=0.067 mM (MW 19400)).
The titration at pH 7.2 included two runs of […] each of 5 μL of perturbant (50 mg/mL=181 mM (FW 277)) and α-interferon (2.31 mg/mL=0.119 mM, (MW 19400)).
ITC was performed according to the method of Example 24 with 40 injections of 5 μL of the perturbant benzoyl para-amino phenylbutyric acid (7.5 mg/mL=24.59 mM, (FW 305)) and α-interferon (2.5 mg/mL=0.129 mM, (MW 19400)).

Data set [4] deals with salmon calcitonin (salmon) (UniProt P01263). In words: ITC, 30 C, pH 6.6 (text: pH 6.5, 30 mM Hepes-30 mM NaCl); perturbant in syringe, sCt in cell.
For data set [5] the target is unchanged. In words: ITC, 30 C, pH 6.6 (text: pH 6.5); perturbant in syringe, sCt in cell.
Data set [6] shares this target. Put plainly: ITC, 30 C, pH 4.5; perturbant in syringe, sCt in cell.
Data set [7] shares this target. Put plainly: ITC, 30 C, pH 4.5 (30 mM sodium acetate-30 mM NaCl); perturbant in syringe, sCt in cell.
A short description of data set [8]: DSC of insulin with increasing guanidine hydrochloride. It counts as physicochemical. The method, then: DSC was performed with […] insulin (0.83 mM assuming a molecular weight of 6,000) in 50 mM phosphate buffer, pH 7.5. Each subsequent thermogram was corrected by background subtraction of a 0.6M guanidine-phosphate buffer solution.
Insulin was freshly prepared as a concentrated stock solution in 50 mM phosphate buffer, pH 7.5, and an appropriate aliquot was diluted in buffer, filtered though a 2 micron PTFE filter, and degassed for at least 20 minutes. The reference cell contained degassed buffer.
Scanning calorimetry was performed using 5 mg 0.83 mM porcine insulin (MW 6,000) per mL in 50 mM phosphate buffer, pH 7.5. All thermograms were performed on a Microcal MC-2 scanning calorimeter equipped with the DA2 data acquisition system operated in the upscale mode at 1° C./min (up to 90° C.), and data points were collected at 20 second intervals. All scans were initiated at least 20 degrees below the observed transitions for the active agent. All thermograms were corrected for baseline subtraction and normalized for the concentration of macromolecule. According to the methods of the Johns Hopkins Biocalorimetry Center, See, for example, Ramsay et al. Biochemistry (1990) 29:8677-8693; Schon et al. Biochemistry (1989) 28:5019-5024 (1990) 29: 781-788. […]

Data set [9] in a line: DSC of insulin, effect of ionic strength. Type of data set: physicochemical. Conditions: pH 7.5. The method, then:
(§2) Scanning calorimetry was performed using 5 mg 0.83 mM porcine insulin (MW 6,000) per mL in 50 mM phosphate buffer, pH 7.5. All thermograms were performed on a Microcal MC-2 scanning calorimeter equipped with the DA2 data acquisition system operated in the upscale mode at 1° C./min (up to 90° C.), and data points were collected at 20 second intervals. All scans were initiated at least 20 degrees below the observed transitions for the active agent. All thermograms were corrected for baseline subtraction and normalized for the concentration of macromolecule. According to the methods of the Johns Hopkins Biocalorimetry Center, See, for example, Ramsay et al. Biochemistry (1990) 29:8677-8693; Schon et al. Biochemistry (1989) 28:5019-5024 (1990) 29: 781-788.
A sample containing 6 mg/mL insulin (0.83 mM in 50 mM phosphate buffer, pH 7.5, containing 0.25, 0.5, or 1.0M NaCl) was used. Thermograms were performed according to the procedure in Example 9 and were corrected by subtraction of a 0.5M NaCl-phosphate buffer blank as described above.
The effect of increasing ionic strength on structure was assessed in DSC experiments where individual solutions were prepared so as to contain NaCl at concentrations ranging from 0.25-3M.

The nature of data set [10]: DSC of α-interferon, pH dependence. It counts as physicochemical. The procedure: as §2
α-interferon stock (9.1 mg/mL) was diluted with buffer to a concentration of 0.6 mg/mL. The sample was dialyzed overnight in buffer (volume ratio of α-interferon to buffer was 1:4000). Since there was no extinction coefficient provided, concentration of the sample used was determined by comparison of absorption spectra of the sample before and after dialysis. For each particular pH, the absorbance of the nondialyzed α-interferon of known concentration was measured at 280 nm. Then after dialysis, absorbance was read again to account for the protein loss, dilution, etc. Buffer conditions and α-interferon concentrations were:
pH 3.0: Buffer—20 mM NaAc. [IFN]=0.50 mg/mL;
pH 4.1: Buffer—20 mM NaAc. [IFN]=0.53 mg/mL;
pH 5.0: Buffer—20 mM NaAc. [IFN]=0.37 mg/mL;
pH 6.0: Buffer—20 mM Na Phosphate. [IFN]=0.37 mg/mL;
pH 7.2: Buffer—20 mM Na Phosphate. [IFN]=0.48 mg/mL.
DSC scans were performed according to the procedure of Example 9. Although clear, transparent solutions of α-interferon were obtained for every pH at room temperature, there were noticeable signs of precipitation at pH 5.0 and 6.0 after the temperature scans.

Data set [11] is described as follows: DSC of α-interferon in GuHCl. It counts as physicochemical. The method, then:
GuHCl 5M stock solution was prepared using 20 mM sodium phosphate, pH 7.2 buffer. After dilution, the pH of the stock was checked and adjusted by concentrated HCl. To determine the concentration of final solution the refractive index referenced in Methods in Enzymology, Vol. 6, page 43 by Yasuhiko Nozaki was used.
α-interferon stock (9.1 mg/mL) was mixed with sufficient amounts of GuHCl to yield the concentrations of Table 1A below:
as §2
GuHCL/α-interferon samples were prepared according to the method of Example 4. DSC scans were performed according to the procedure of Example 9.

In data set [12] the target is T1, α-interferon. Put plainly: Perturbant binding DSC with α-interferon. Particulars: perturbant 0 mg/ml; α-interferon 0.64 mg/ml; pH 7.2. The method, then:
as §1
DSC thermograms were generated with α-interferon at a concentration of 0.64 mg/ml and a perturbant (phenylsulfonyl-para-aminobenzoic acid purified to >98% (as determined by reverse phase chromatography prior to generation of the spectra)) at perturbant concentrations of 5, 10, 25 and 100 mg/ml. DSC was conducted on a DASM-4 differential scanning calorimeter interfaced to an IBM PC for automatic collection of the data. The scanning rate was 60° C./h.
The method of Example 19 was followed substituting α-interferon without perturbant. Results are illustrated in Table 9 below and FIG. 10. […]

Where only a bound is given, the exact number is not on record here.

T1 sequence (P01563 24-188): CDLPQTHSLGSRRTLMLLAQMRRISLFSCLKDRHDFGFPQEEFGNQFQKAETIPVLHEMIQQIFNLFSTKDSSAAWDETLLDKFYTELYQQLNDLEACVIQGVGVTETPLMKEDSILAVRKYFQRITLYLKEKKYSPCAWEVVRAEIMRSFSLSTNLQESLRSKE
Sequence of salmon calcitonin (salmon) (P01263 83-114 limits assumed): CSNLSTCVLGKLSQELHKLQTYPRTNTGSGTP

In the case of `O=C(O)CCCc1ccc(NC(=O)c2ccccc2)cc1` [benzoyl para-amino phenylbutyric acid], the “Maximum concentration at which the solution was still transparent” value in [1] is on record as not below 8 mg/mL. For the same compound, the Kd in [2] amounted to 100 µM. For the same compound, in data set [3], the “log 10 Ka (1), Ka=association constant” value amounted to 3.343 and the “ΔH (1)” value was found to be 791.5726 cal/Mole perturbant. In addition, the “n (1), # of complexed perturbant molecules” value in data set [3] (curve fitting, multiple independent sites) stood at 23.7.
Turning to “thermal condensation product of glutamic acid, aspartic acid, tyrosine, and phenyl-alanine (Glu-Asp-Tye-Phe) fractionated through a 3000 molecular weight cut-off filter”, in data set [4], the Kd turned out to be 0.00699 µM. In [5], the N was determined as 11.6, the delta H stood at 0.277 kcal/mol and the delta S was 38.3 cal/mol ° K. Further, in data set [6], the N turned out to be 0.8, the delta H came out at 0.553 kcal/mol and the delta S stood at 19.8 cal/mol ° K. Besides, the Kd in data set [7] was determined as 129 µM.
Insulin: porcine insulin (MW 6,000): the “Tm (Cp, max)” value in data set [8] (0.0 M GuHCl, 50 mM phosphate pH 7.5) was 78.3 °C; in data set [8] (0.5 M GuHCl, pH 7.5), 79.3 °C; in data set [8] (1.0 M GuHCl, pH 7.5), 77.5 °C; in [8] (2.0 M GuHCl, pH 7.5), 69.7 °C; in data set [8] (3.0 M GuHCl, pH 7.5), “no transition observed”; in data set [9] (0.0 M NaCl) it was 78.3 °C. Further, the “Tm (Cp, max)” value in data set [9] (0.25 M NaCl), in data set [9] (0.5 M NaCl) and in data set [9] (1.0 M NaCl) was 80.7 °C throughout.
As for α-Interferon, the Tm in [10] (pH 4.1) stood at 65.64 °C; in data set [10] (pH 5.0) it was 67.32 °C; in [10] (pH 6.0), 65.34 °C; in data set [10] (pH 7.2), 66.84 °C; in data set [11] ([GuHCl] 0.0 M), 67.12 °C; in data set [11] ([GuHCl] 0.5 M), 64.43 °C. Further, the Tm in data set [11] ([GuHCl] 1.0 M) was found to be 63.04 °C; in data set [11] ([GuHCl] 1.5 M) it was 60.11 °C; in data set [11] ([GuHCl] 2.0 M), 56.32 °C; in [11] ([GuHCl] 3.0 M), 45.90 °C. Moreover, the ΔH in data set [10] (pH 4.1) stood at 60.47 kcal/mol; in [10] (pH 5.0), 69.782 kcal/mol; in data set [10] (pH 6.0) it was 45.58 kcal/mol; in data set [10] (pH 7.2), 732.717 kcal/mol; in data set [11] ([GuHCl] 0.0 M), 72.562 kcal/mol; in data set [11] ([GuHCl] 0.5 M), 50.827 kcal/mol. The ΔH in data set [11] ([GuHCl] 1.0 M) is 41.705 kcal/mol; in [11] ([GuHCl] 1.5 M), 29.52 kcal/mol; in [11] ([GuHCl] 2.0 M) it was 24.98 kcal/mol; in [11] ([GuHCl] 3.0 M), 20.577 kcal/mol. Besides, the “Tm of α-interferon” value in data set [12] was determined as 67.12 °C. Further, the “ΔH of α-interferon” value in data set [12] was found to be 72.562 kcal/mol.
